According to FireProtDB (doi:10.1016/j.jmb.2004.09.082):

B1: Co-chaperonin GroES, P0A6F9 (parent)
chain: MNIRPLHDRVIVKRKEVETKSAGGIVLTGSAAAKSTRGEVLAVGNGRILENGEVKPLDVKVGDIVIFNDGYGVKSEKIDNEEVLIMSESDILAIVEA

Variants of: B1
Settings: Escherichia coli (strain K12); pH 7.8; 25 °C; GdnHCl; Chromatography; Tris-HCl 5 mM; KCl 200 mM; reversible: yes; structure 1AON; whole UniProt chain shown

I3C
ddG of mutation (higher = less stable): 0.4 kcal/mol
denaturant m value: 2.4 kcal/mol/M
unfolding free energy: 1.9 kcal/mol

I3W
ddG of mutation (higher = less stable): 0.4 kcal/mol
denaturant m value: 2 kcal/mol/M
unfolding free energy: 1.9 kcal/mol

V95C
ddG of mutation (higher = less stable): 0.3 kcal/mol
denaturant m value: 2.2 kcal/mol/M
unfolding free energy: 2 kcal/mol
